Target: E. coli RNAP core with βG1249D (α2, His6-tagged βG1249D, β’, ω) (E. coli) (UniProt P0A7Z4)
Experiment: cross-linking; photo-crosslinking from BpA at σ 581; σD581BpA incubated with or without AsiA 10 min at 37°C, then with core 10 min at 37°C; UV 30 min at room temperature; SDS-PAGE with Coomassie stain; crosslinked band digested with trypsin and read by MALDI-TOF; the species was seen only with AsiA present

fold less of the σD581BpA-β’ crosslinked product than with wt core: 4 fold
Substance: AsiA/σD581BpA complex (from UniProt P00579 1-613; P32267 1-90)

— article PMC5027511
